In PMC11233575, “Unlocking the function promiscuity of old yellow enzyme to catalyze asymmetric Morita-Baylis-Hillman reaction” (Nature Communications, 2024):

What was measured:
[1] = target: the molecule itself; assay: crystal structure; apo-GkOYE.8 at 15 mg/mL, hanging drop, 0.1 M glycine pH 9.0, 25% (w/v) polyethylene glycol 2000, 15% (w/v) glycerol, 20 °C; 3.11 Å
[2] = substrate: O=C1C=CCC1; assay: initial velocity of MBH adduct formation by HPLC, Michaelis-Menten fit; format: biochemical, Geobacillus kaustophilus; settings: 4 mM 4-nitrobenzaldehyde, PBS pH 10.0, 3% methanol, 25 °C
Description: (§1) initial velocity of MBH adduct formation by HPLC, Michaelis-Menten fit on GkOYE

[3] = substrate: O=Cc1ccc([N+](=O)[O-])cc1; assay: as above; format: biochemical, Geobacillus kaustophilus; settings: 5 mM 2-cyclopenten-1-one, PBS pH 10.0, 3% methanol, 25 °C
Description: as §1

[4] = GkOYE.8, MBH reaction, no FMN, covalent intermediate at C26

B1: GkOYE.8 (GkOYE^Q102A/Y169F/R215A/R308A) (enzyme, Geobacillus kaustophilus)
chain: MNTMLFSPYTIRGLTLKNRIVMSPMCMYSCDTKDGAVRTWHKIHYPARAVGQVGLIIVEATGVTPQGRISERDLGIWSDDHIAGLRELVGLVKEHGAAIGIALAHAGRKSQVPGEIIAPSAVPFDDSSPTPKEMTKADIEETVQAFQNGARRAKEAGFDVIEIHAAHGFLINEFLSPLSNRRQDEYGGSPENRYRFLGEVIDAVREVWDGPLFVAISASDYHPDGLTAKDYVPYAKRMKEQGVDLVDVSSGAIVPARMNVYPGYQVPFAELIRREADIPTGAVGLITSGWQAEEILQNGRADLVFLGAELLRNPYWPYAAARELGAKISAPVQYERGWRF
notes: FMN-free (apo); Expressed from the plasmid pET28a-GkOYE.8; also called apo-GkOYE.8; source: E. coli BL21(DE3), purified (Strep-Tactin column; HisTrap HP column for crystallization)
What does the source list for B1?
stoichiometry N [1]: 2; Km [2, 4]: 4.28 mM; kcat [2, 4]: 0.000178 s⁻¹; kcat/Km [2, 4]: 0.0417 M⁻¹ s⁻¹; Km ([3]; GkOYE.8, MBH reaction, no FMN): 15.98 mM; kcat ([3]; GkOYE.8, MBH reaction, no FMN): 0.000458 s⁻¹; kcat/Km ([3]; GkOYE.8, MBH reaction, no FMN): 0.0278 M⁻¹ s⁻¹

B2: GkOYE (Geobacillus kaustophilus HTA426; G62W/Q102A/R215A/R308A/Y169F) (protein)
chain: MNTMLFSPYTIRGLTLKNRIVMSPMCMYSCDTKDGAVRTWHKIHYPARAVGQVGLIIVEATWVTPQGRISERDLGIWSDDHIAGLRELVGLVKEHGAAIGIALAHAGRKSQVPGEIIAPSAVPFDDSSPTPKEMTKADIEETVQAFQNGARRAKEAGFDVIEIHAAHGFLINEFLSPLSNRRQDEYGGSPENRYRFLGEVIDAVREVWDGPLFVAISASDYHPDGLTAKDYVPYAKRMKEQGVDLVDVSSGAIVPARMNVYPGYQVPFAELIRREADIPTGAVGLITSGWQAEEILQNGRADLVFLGAELLRNPYWPYAAARELGAKISAPVQYERGWRF
notes: recombinant, Strep-tagged, pET28a, E. coli BL21(DE3); Strep-Tactin purified; dimer in crystal
B2 was tested. Which Km ([2]; GkOYE.9, MBH reaction) did it give?
Its Km is 2.00 mM.

What about the kcat ([2]; GkOYE.9, MBH reaction) of the same protein?
The kcat was 0.000181 s⁻¹.

What about the kcat/Km ([2]; GkOYE.9, MBH reaction) of the same protein?
Its kcat/Km is 0.0917 M⁻¹ s⁻¹.

What about the Km ([3]; GkOYE.9, MBH reaction) of the same protein?
Its Km is 12.44 mM.

And the kcat ([3]; GkOYE.9, MBH reaction)?
Its kcat is 0.000442 s⁻¹.

What about the kcat/Km ([3]; GkOYE.9, MBH reaction) of the same protein?
Its kcat/Km is 0.0361 M⁻¹ s⁻¹.

B3: GkOYE (Geobacillus kaustophilus HTA426; D247I/G62W/H167A/Q102A/R215A/R308A/Y169F) (protein)
chain: MNTMLFSPYTIRGLTLKNRIVMSPMCMYSCDTKDGAVRTWHKIHYPARAVGQVGLIIVEATWVTPQGRISERDLGIWSDDHIAGLRELVGLVKEHGAAIGIALAHAGRKSQVPGEIIAPSAVPFDDSSPTPKEMTKADIEETVQAFQNGARRAKEAGFDVIEIHAAAGFLINEFLSPLSNRRQDEYGGSPENRYRFLGEVIDAVREVWDGPLFVAISASDYHPDGLTAKDYVPYAKRMKEQGVDLVIVSSGAIVPARMNVYPGYQVPFAELIRREADIPTGAVGLITSGWQAEEILQNGRADLVFLGAELLRNPYWPYAAARELGAKISAPVQYERGWRF
notes: as for B2
Which Km ([2]; GkOYE.11, MBH reaction) does the source give for B3 here?
The Km was 1.70 mM.

And the kcat ([2]; GkOYE.11, MBH reaction)?
Its kcat is 0.00019 s⁻¹.

What about the kcat/Km ([2]; GkOYE.11, MBH reaction) of the same protein?
The kcat/Km was 0.114 M⁻¹ s⁻¹.

And the Km ([3]; GkOYE.11, MBH reaction)?
Its Km is 11.22 mM.

What about the kcat ([3]; GkOYE.11, MBH reaction) of the same protein?
The kcat was 0.000478 s⁻¹.

And the kcat/Km ([3]; GkOYE.11, MBH reaction)?
The kcat/Km was 0.0417 M⁻¹ s⁻¹.

B4: GkOYE (Geobacillus kaustophilus HTA426; Q102A/R215A/R308A/Y169W) (protein)
chain: MNTMLFSPYTIRGLTLKNRIVMSPMCMYSCDTKDGAVRTWHKIHYPARAVGQVGLIIVEATGVTPQGRISERDLGIWSDDHIAGLRELVGLVKEHGAAIGIALAHAGRKSQVPGEIIAPSAVPFDDSSPTPKEMTKADIEETVQAFQNGARRAKEAGFDVIEIHAAHGWLINEFLSPLSNRRQDEYGGSPENRYRFLGEVIDAVREVWDGPLFVAISASDYHPDGLTAKDYVPYAKRMKEQGVDLVDVSSGAIVPARMNVYPGYQVPFAELIRREADIPTGAVGLITSGWQAEEILQNGRADLVFLGAELLRNPYWPYAAARELGAKISAPVQYERGWRF
notes: as for B2
Which Km ([2]; GkOYE.12, MBH reaction) does the source give for B4 here?
The Km was 4.50 mM.

And the kcat ([2]; GkOYE.12, MBH reaction)?
Its kcat is 0.000167 s⁻¹.

What about the kcat/Km ([2]; GkOYE.12, MBH reaction) of the same protein?
The kcat/Km was 0.0361 M⁻¹ s⁻¹.

What about the Km ([3]; GkOYE.12, MBH reaction) of the same protein?
Its Km is 17.28 mM.

What about the kcat ([3]; GkOYE.12, MBH reaction) of the same protein?
Its kcat is 0.000422 s⁻¹.

And the kcat/Km ([3]; GkOYE.12, MBH reaction)?
Its kcat/Km is 0.025 M⁻¹ s⁻¹.

B5: GkOYE (Geobacillus kaustophilus HTA426; G62N/Q102A/R215A/R308A/Y169W) (protein)
chain: MNTMLFSPYTIRGLTLKNRIVMSPMCMYSCDTKDGAVRTWHKIHYPARAVGQVGLIIVEATNVTPQGRISERDLGIWSDDHIAGLRELVGLVKEHGAAIGIALAHAGRKSQVPGEIIAPSAVPFDDSSPTPKEMTKADIEETVQAFQNGARRAKEAGFDVIEIHAAHGWLINEFLSPLSNRRQDEYGGSPENRYRFLGEVIDAVREVWDGPLFVAISASDYHPDGLTAKDYVPYAKRMKEQGVDLVDVSSGAIVPARMNVYPGYQVPFAELIRREADIPTGAVGLITSGWQAEEILQNGRADLVFLGAELLRNPYWPYAAARELGAKISAPVQYERGWRF
notes: as for B2
For B5, which Km ([2]; GkOYE.13, MBH reaction) is on record?
The Km was 1.91 mM.

And the kcat ([2]; GkOYE.13, MBH reaction)?
Its kcat is 0.000189 s⁻¹.

What about the kcat/Km ([2]; GkOYE.13, MBH reaction) of the same protein?
Its kcat/Km is 0.1 M⁻¹ s⁻¹.

And the Km ([3]; GkOYE.13, MBH reaction)?
The Km was 12.10 mM.

What about the kcat ([3]; GkOYE.13, MBH reaction) of the same protein?
The kcat was 0.000461 s⁻¹.

And the kcat/Km ([3]; GkOYE.13, MBH reaction)?
The kcat/Km was 0.0389 M⁻¹ s⁻¹.
